Reference: paper PMC9931449

Assays:
Test in all cases: fluorescence anisotropy
APE1 WT = APE1 WT (Homo sapiens, UniProt P27695 1-318)
APE1 C310S = APE1 C310S (Homo sapiens, UniProt P27695 1-318, C310S)
APE1 C65S = APE1 C65S (Homo sapiens, UniProt P27695 1-318, C65S)
APE1 C65S, sequence (P27695 whole entry C65S): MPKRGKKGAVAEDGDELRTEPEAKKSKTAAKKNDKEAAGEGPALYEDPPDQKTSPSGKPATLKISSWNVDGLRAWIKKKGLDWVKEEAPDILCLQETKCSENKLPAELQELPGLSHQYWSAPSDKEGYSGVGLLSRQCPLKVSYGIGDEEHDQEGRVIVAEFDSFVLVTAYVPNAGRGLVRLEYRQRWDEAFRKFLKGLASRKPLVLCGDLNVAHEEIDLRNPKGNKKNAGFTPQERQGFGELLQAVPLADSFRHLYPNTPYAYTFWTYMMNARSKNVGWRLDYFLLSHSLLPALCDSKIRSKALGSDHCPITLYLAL

APE1 C310S, sequence (P27695 whole entry C310S): as the sequence (P27695 whole entry C65S) above, with S65C, C310S counted along it
APE1 WT, sequence (P27695 whole entry): as the sequence (P27695 whole entry C65S) above, with S65C counted along it

B1: N3 WT duplex (dsDNA)
DNA 1: TTGGGCGGGGCCTGGGCGGGGCC
DNA 2: GGCCCCGCCCAGGCCCCGCCCAA
- binding result (APE1 WT): no binding

Binder: TAGGGTGCTGTTTGGGCGGGGCCTGGGCGGGGCC (structured_DNA) [N3-5 G4]
- binding result (APE1 C310S): binds
- binding result (APE1 C65S): binds

Binder: TTGGGCGGGGCCTGGGCGGGGCC (structured_DNA) [N3-4 G4]
- binding result (APE1 C310S): binds
- binding result (APE1 C65S): binds
